# Source: IntAct's records for PubMed 12540855
# B1: Histone-lysine N-methyltransferase SETD7 (Homo sapiens), Q8WTS6 (parent)
# chain: MDSDDEMVEEAVEGHLDDDGLPHGFCTVTYSSTDRFEGNFVHGEKNGRGKFFFFDGSTLEGYYVDDALQGQGVYTYEDGGVLQGTYVDGELNGPAQEYDTDGRLIFKGQYKDNIRHGVCWIYYPDGGSLVGEVNEDGEMTGEKIAYVYPDERTALYGKFIDGEMIEGKLATLMSTEEGRPHFELMPGNSVYHFDKSTSSCISTNALLPDPYESERVYVAESLISSAGEGLFSKVAVGPNTVMSFYNGVRITHQEVDSRDWALNGNTLSLDEETVIDVPEPYNHVSKYCASLGHKANHSFTPNCIYDMFVHPRFGPIKCIRTLRAVEADEELTVAYGYDHSPPGKSGPEAPEWYQVELKAFQATQQK
# Variants of: B1
# Conditions: with h31_human H3C1, P68431
row,Variant,effect of a mutation on the interaction
1,Y245A,decreasing interaction
